Experiments:
[1] = biological target: T1, human CD94 (human, UniProt Q13241 1-179); assay: HLA-E tetramer blocking on healthy-donor PBMCs, flow cytometry; competitor HLA-E tetramer
T1 construct: whole, on cells; Endogenous CD94 on primary cells (healthy-donor PBMC NK cells, CLPD-NK and T-LGLL patient cells), where it pairs with NKG2A or NKG2C; also called KLRD1; Natural killer cells antigen CD94
T1 sequence (looked up): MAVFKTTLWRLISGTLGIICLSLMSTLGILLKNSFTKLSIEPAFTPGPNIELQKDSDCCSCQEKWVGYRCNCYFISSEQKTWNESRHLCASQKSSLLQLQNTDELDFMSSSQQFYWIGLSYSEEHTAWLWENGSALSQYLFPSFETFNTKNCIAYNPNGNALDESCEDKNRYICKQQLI
Experimental: Healthy donor PBMCs were seeded in 96-well plates at a density of 100,000 cells per well, incubated with human Fc block (Biolegend) and cell viability dye (Thermo Fisher) for 30 minutes on ice and protected from light. The cells were washed once with FACS buffer (PBS with 2% IgG low FBS). anti-CD94 antibodies at EC80 concentrations were incubated with cells for 30 minutes on ice and protected from light. After incubation with the anti-CD94 antibodies, the cells were washed and incubated with HLA-E tetramer PE (Creative Biolabs), anti-CD3 pacific blue-labelled, and anti-CD56 FITC-labelled antibodies (Biolegend) for 30 minutes on ice and protected from light. The cells then received a final wash in FACS buffer before quantification on the Cytoflex (Beckman Coulter). All data acquisition and fluorescence compensation were performed using CytoFlex (Beckman Coulter, Atlanta, Ga.). Data analysis was performed using FlowJo software. NK cells were identified through gating on lymphocytes on the forward and side scatter, followed by doublet and dead cell exclusion, and gated on the CD3−CD56+ population. HLA-E expression was then quantified on the CD3−CD56+NK cell population. Percent blocking was calculated as 100−((percent HLA-E positive for anti-CD94 antibody)/(percent HLA-E positive for isotype)*100).
Healthy donor PBMCs were incubated with anti-CD94 antibodies. PE labeled HLA-E tetramer was then incubated with cells and antibody mixture and detected by flow cytometry.
Percent blocking was calculated as 100−((percent HLA-E positive for anti-CD94 antibody)/(percent HLA-E positive for isotype)*100). If an antibody blocked more than 20% of HLA-E binding, it was considered a ligand-blocking antibody.

[2] = biological target: T2, CD94 homodimer on BaF3 cells (UniProt Q13241 1-179); assay: flow cytometry titration (50 nM to 0.02 nM) on BaF3 cells, anti-human AF647 secondary antibody; BaF3 cells overexpressing CD94 homodimer
T2 construct: whole, on cells
T2 sequence (looked up): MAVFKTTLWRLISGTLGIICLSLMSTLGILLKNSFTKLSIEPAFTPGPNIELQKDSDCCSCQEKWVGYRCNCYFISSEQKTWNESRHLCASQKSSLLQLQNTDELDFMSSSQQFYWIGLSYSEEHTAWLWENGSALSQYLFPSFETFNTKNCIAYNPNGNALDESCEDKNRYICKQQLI
Experimental: (§1) BaF3 cells overexpressing CD94 homodimer (top panel), CD94/NKG2A heterodimer (lower left panel), and CD94/NKG2C heterodimer (lower right panel) were incubated with unconjugated ATX-130 antibody in a dilution series from 50 nM to 0.02 nM. Secondary anti-human antibody labeled with Alexa Fluor 647 was used to detect ATX-130 binding on cells.
(§2) The affinity of the antibody clone ATX-130 on CD94 homodimer and heterodimer was also assessed by flow cytometry analysis.

[3] = biological target: T1, human CD94; assay: flow cytometry titration (100 nM to 0.046 nM) on healthy-donor PBMCs, CD3-CD56bright NK cells; column 'Affinity on human NK cells (nM)'
[4] = biological target: T3, CD94/NKG2A heterodimer on BaF3 cells (UniProt Q13241 1-179; P26715 1-233, limits assumed); assay: flow cytometry titration (50 nM to 0.02 nM) on BaF3 cells, anti-human AF647 secondary antibody; BaF3 cells overexpressing CD94/NKG2A heterodimer
T3 construct: whole, on cells
Experimental: as §1, §2

[5] = biological target: T4, CD94/NKG2C heterodimer on BaF3 cells (UniProt Q13241 1-179; P26717 1-231, limits assumed); assay: flow cytometry titration (50 nM to 0.02 nM) on BaF3 cells, anti-human AF647 secondary antibody; BaF3 cells overexpressing CD94/NKG2C heterodimer
T4 construct: whole, on cells
Experimental: as §1, §2

[6] = biological target: T5, cynomolgus CD94 (cynomolgus monkey); assay: flow cytometry on HEK293 cells overexpressing cynomolgus CD94; unconjugated antibody in a dilution series, Alexa Fluor 647 anti-human secondary antibody
T5 construct: whole, on cells; The construct expressed in HEK293 cells is not described further; also called cyno CD94; cynomolgus monkey CD94
Experimental: For human NK cell binding, PBMCs were freshly isolated from healthy donors and incubated with unconjugated antibodies in a dilution series from 100 nM to 0.046 nM. Secondary anti-human antibody labeled with Alexa Fluor 647 was used to detect binding on CD3−CD56bright NK cells. For cynomolgus CD94 binding, HEK293 cells overexpressing cynomolgus CD94 were incubated with unconjugated antibodies in a dilution series from 100 nM to 0.046 nM. Secondary anti-human antibody labeled with Alexa Fluor 647 was used to detect binding on the cells.

T4 sequence (P26717 whole entry, one chain of several): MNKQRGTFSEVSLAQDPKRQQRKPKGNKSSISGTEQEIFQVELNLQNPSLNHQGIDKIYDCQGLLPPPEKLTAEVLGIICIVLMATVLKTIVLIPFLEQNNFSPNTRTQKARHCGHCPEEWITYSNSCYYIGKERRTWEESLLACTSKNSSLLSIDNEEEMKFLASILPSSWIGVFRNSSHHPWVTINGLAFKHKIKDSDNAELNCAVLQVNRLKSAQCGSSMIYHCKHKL
T3 sequence (P26715 whole entry, one chain of several): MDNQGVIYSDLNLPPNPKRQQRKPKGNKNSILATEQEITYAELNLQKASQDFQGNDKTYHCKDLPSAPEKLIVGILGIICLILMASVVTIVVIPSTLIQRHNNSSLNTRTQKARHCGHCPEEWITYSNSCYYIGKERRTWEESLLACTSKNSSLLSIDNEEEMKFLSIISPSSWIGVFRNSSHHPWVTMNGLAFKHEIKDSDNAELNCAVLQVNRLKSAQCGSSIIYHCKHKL

percent HLA-E blocking [1]: 0%
EC50 [2]: 300 pM
EC50 [3]: 600 pM
EC50 [4]: 800 pM
EC50 [5]: 1800 pM
EC50 (read off the curve) [6]: ~700 pM
B1: anti-CD94 antibody ATX-130 (antibody, human IgG1, V domains shown)
VH: EVQLLESGGGLVKPGGSLRLSCAASGFTFSSYSMNWVRQAPGKGLEWVSSISTSSNFIYYADSVKGRFTISRDNAKNSLYLQMNSLRAEDTAVYYCARDLGRYYYYMDVWGKGTTVTVSS
VL: DIVMTQSPSSLSASVGDRVTITCRASQSISSWLAWYQQKPGKAPKSLIYAASSLQSGVPSKFSGSGSGTDFTLTISSLQPEDVATYYCQKYNSAPFTFGPGTKVDIK
notes: also called hATX-130
